From patent publication US20220364069A1, “METHOD FOR THE PRODUCTION OF AN ENZYMATIC COMPOSITION COMPRISING A RECOMBINANT ENDOPEPTIDASE” (NEMYSIS LIMITED, priority 2019, published 2022)
Entries after “also recorded” stand apart in the source; their conditions may differ.

How the values were obtained:
[1] = system: gliadin (QPQLPY sequence); test: Gluten content of gliadin digests by Elisa-G12; assay type: biochemical, wheat
Experimental: Next it has been evaluated whether recombinant E40 enzymatic activity efficiently neutralizes: i) the capacity of gluten proteins to bind G12 antibodies, and ii) the stimulation of a T-cell-mediated immune response, measured by IFN-γ release. To this purpose, gliadin proteins were suspended in 1 ml of 0.1M ammonium acetate and digested with E40 alone, or with E40 co-incubated with the gastrointestinal proteases, pepsin and trypsin/chymotrypsin, at different pHs and time points, as detailed in Table 1.
All enzymes were added in w/w ratio 1:20 (enzyme:protein) and incubated at 37° C., at indicated pH and incubation time. E40/pepsin/chymotrypsin-digested gliadins were deamidated by tTGase (Sigma Aldrich), as previously described^4. Briefly, the enzymatic gliadin digests (500 μg/ml) were incubated with 2 U of guinea pig tTG (T-5398, Sigma, St. Louis, Mo., USA) at 37° C. for 2 hours in PBS with 1 mmol/L CaCl2.
To estimate the effect of E40 digestion on the immunological potential of wheat, gluten content of samples A-L was determined by monoclonal antibodies specific for QPQLPY sequence (Elisa-G12)^10.

peanut proteins = test: In vitro digestion of peanut proteins (SDS-PAGE, HPLC); assay type: biochemical; conditions: 1:20 enzyme:substrate, up to 120 min
Experimental: Degradation of peanuts proteins incubated in the presence of recombinant E40 has been assessed by SDS-PAGE and HPLC analysis. Results are shown in FIG. 9 (A: SDS-PAGE; B: HPLC analysis).

pepsin = biological target: T1, pepsin (Sus scrofa, UniProt P00791); test: Resistance of E40 to pepsin (suc-Ala-Ala-Pro-Phe-pNA cleavage); assay type: biochemical; conditions: pH 4, 4.5 and 5; protease 1:2 (w/w) versus E40; 110 minutes, 37° C.
T1 construct: purchased Sigma-Aldrich (Milan, Italy)
Experimental: (§1) The resistance of recombinant E40, obtained by the method of the invention, to the proteolytic activity of gastric (pepsin) and duodenal (trypsin) digestive proteases was further evaluated (FIG. 4), using suc-Ala-Ala-Pro-Phe-pNA as substrate. Aqueous solutions of E40 enzyme, alone or in combination with pepsin and/or trypsin (0.2 mg/ml E40, 0.1 mg/ml Pepsin or Trypsin), were diluted in citrate-phosphate buffer containing suc-Ala-Ala-Pro-Phe-pNA at pH 4, 4.5 and 5 for pepsin, and at pH 6 and 7 for trypsin. Final concentrations in reaction mix were: 200 μM substrate, 1-4 nM E40 for incubations at pH 4 to 5, or 4 nM and 7 nM for incubations at pH 6 or 7, respectively (E40 concentration was adjusted according to optimum pH). The digestive protease was maintained in the ratio 1:2 (w/w) versus E40.
(§2) Reactions (200 μl volume in 96-wells flat bottom ptiter plates) were protracted for 110 minutes at 37° C. Absorbance was monitored every 10 min for determining the enzymatic activity. Pepsin and trypsin without E40 were processed in the same way and tested in the same condition as reference control. Each analysis was carried out in duplicate.

gluten of bread = test: In vitro oral-gastric digestion of bread, gluten by Elisa-R5 competitive; assay type: biochemical, T. aestivum
Experimental: In order to evaluate the efficiency of E40 enzyme as oral supplement to abolish the gluten intake in patients, in vitro oral-gastric digestion model was applied. Digestion step of bread (T. aestivum) was carried out under simulated physiological condition including oral mastication and presence of digestive gastric enzymes. Digestion time was selected according to the average time of chyme's transit in the gastric compartments. E40 enzyme preparation was added at beginning of the simulated gastric phase. The destruction of the T cell epitopes and toxic peptides was tested using monoclonal antibodies (Elisa-R5 competitive), according to the manufacturer's and to the AOAC guidelines.

trypsin = test: Resistance of E40 to trypsin (suc-Ala-Ala-Pro-Phe-pNA cleavage); assay type: biochemical; conditions: pH 6 and 7; protease 1:2 (w/w) versus E40; 110 minutes, 37° C.
Experimental: as §1, §2

[2] = system: CD4+ T-cell lines from intestinal biopsies of CD patients; test: IFN-γ production of gliadin reactive intestinal T-cell lines exposed to gliadin digests; assay type: cell-based, human; conditions: samples A-H; digests at 50 and 100 μg/ml; 48 hours; assay sensitivity 32 pg/ml
Experimental: In order to evaluate the capability of gliadin preparations to activate a T-cell response, the different gliadin enzymatic digests (samples A-L in FIGS. 7A and 7B) deamidated by tTG treatment, were assayed on CD4+ T-cell lines previously established from intestinal biopsies of CD patients^11 (Table 3).
Briefly, intestinal mononuclear cells were stimulated with irradiated autologous peripheral blood mononuclear cells (PBMCs) and deamidated pepsin-chymotrypsin digested gliadin extracted from the hexaploid wheat. Growing T cells were kept in culture by repeated stimulation with heterologous irradiated PBMCs and PHA, and IL-2 as a growth factor. […] In the functional assays, the immune response of TCLs to gliadin enzymatic digests (samples A-L, Table 1 and FIGS. 7A and B) was assayed by detecting IFN-γ production. T cells (3×10^4) were co-incubated with irradiated autologous EBV-transformed, B-lymphoblastoid cell lines (B-LCLs, 1×10^5), in 200 μL of complete medium (X-Vivol5 supplemented with 5% human serum and penicillin-streptomycin antibiotics, all reagents supplied by Lonza-BioWhittaker, Verviers, Belgium) in U-bottom 96-well plates. After a 48 hours incubation, cell supernatants (50 μL) were collected for IFN-γ determination. […] IFN-γ was measured by a classic sandwich ELISA using purified and biotin-conjugated anti-IFN-γ Abs purchased from Mabtech (Nacka Strand, Sweden). […]

T1 sequence (P00791 60-385): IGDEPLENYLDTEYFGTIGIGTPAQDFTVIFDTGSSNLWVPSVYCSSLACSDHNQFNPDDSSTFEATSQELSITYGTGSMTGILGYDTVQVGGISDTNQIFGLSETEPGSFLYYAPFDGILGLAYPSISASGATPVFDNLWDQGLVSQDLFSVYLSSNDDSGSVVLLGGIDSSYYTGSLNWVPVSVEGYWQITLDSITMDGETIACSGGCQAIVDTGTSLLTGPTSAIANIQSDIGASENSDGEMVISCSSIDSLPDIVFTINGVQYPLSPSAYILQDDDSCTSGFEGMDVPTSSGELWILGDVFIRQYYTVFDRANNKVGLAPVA

B1: E40: Actinoallomurus endopeptidase with glutenase activity, sequence comprising SEQ ID NO: 1; recombinant histidine-tagged form SEQ ID NO: 2 from S. lividans (protein)
chain: AAPSGLSPANLQSAYKLPSSTAGSGQTVAIVDAYDAPTAEADLNVYRSQFGLGACTTANGCFKKVDQNGGTSYPRKDGGWAQEISLDLDMVSAVCPNCKIVLVEAKTNSFANLGTAENTAASLANVISNSYGGSDASDASYGSYYNHPGKAITVSSGDAGYGVEYPASSHYVTAVGGTSLRTASTSRGWSETAWSGAGSGCSAYNTALSGQSGLTGCSRRAVADVSAVADPATGVAVYDSTAYQGQSGWMVFGGTSVAAPIIGGVYGLAANAASIDNNYPYAHTSSLFDVTSGSNGTCTTTKWCTAGTGWDGPTGLGTPNGTGAFGHHHHHH
modifications: Actinoallomurus
- gluten content (Elisa-G12) ([1]; sample A: E40 (1 h) (pH 4)): 1.72 ppm (ng/mL)
- gluten content (Elisa-G12) ([1]; sample B: E40 (2 h) (pH 4)): 2.26 ppm (ng/mL)
- gluten content (Elisa-G12) ([1]; sample C: E40 + Pepsin (1 h) (pH 4)): 5.23 ppm (ng/mL)
- gluten content (Elisa-G12) ([1]; sample D: E40 + Pepsin (2 h) (pH 4)): 5.42 ppm (ng/mL)
- gluten content (Elisa-G12) ([1]; sample E: E40 + Pepsin (2 h) (pH 4), Trypsin + Chymotrypsin (2 h) (pH 6)): 4.09 ppm (ng/mL)
- gluten content (Elisa-G12) ([1]; sample F: E40 + Pepsin (2 h) (pH 4), Trypsin + Chymotrypsin (4 h) (pH 6)): 2.68 ppm (ng/mL)
- gluten content (Elisa-G12) ([1]; sample G: E40 + Pepsin (1 h) (pH 4), Trypsin + Chymotrypsin (2 h) (pH 6)): 1.68 ppm (ng/mL)
- gluten content (Elisa-G12) ([1]; sample H: E40 + Pepsin (1 h) (pH 4), Trypsin + Chymotrypsin (4 h) (pH 6)): 2.05 ppm (ng/mL)
- gluten content of E40 digested samples ([1]; samples from A to H): below 20 ppm
- peanut protein digestion (peanut proteins): degradation of peanut proteins
- E40 cleaving activity in presence of pepsin (pepsin): unaffected; also recorded: slightly enhanced
- gluten content of bread digest (Elisa-R5) (gluten of bread; E40 added at beginning of simulated gastric phase): 16.2 ppm (ng/mL)
- gluten content of digested bread including E40 (gluten of bread; oral-gastric digest): < 20 ppm
- E40 cleaving activity in presence of trypsin (trypsin): unaffected
- pH of maximal activity (purified enzyme preparation, pH range 2 to 8): 5
- residual activity at pH 3 (purified enzyme preparation, relative to pH 5): ~40%
- enzyme activity of purified sample (purified sample of Example 4, pH 5, 37° C.): 41000 U/mg protein
- IFN-γ production of T cells exposed to E40-digested gliadins [2]: no detectable IFN-γ production
